Experimental data taken from patent publication US20240262893A1 (APPLIED BIOMEDICAL SCIENCE INSTITUTE, published 2024).
Numbering of substitutions follows the chain as printed. Like-named read-outs stand apart in the source and are kept apart here.

Key:
[1] = target: T1, SARS CoV-2 spike trimer protein from the parental Wuhan-Hu-1 isolate (extracellular domain, furin-cl (SARS-CoV-2 (Wuhan-Hu-1)))
[2] = target: T2, parental receptor binding domain (RBD) protein (amino acids 319 to 541 of the spike protein) with c-terminal … (SARS-CoV-2 (Wuhan-Hu-1), UniProt P0DTC2 319-541)
[3] = target: T1, SARS CoV-2 spike trimer protein from …; remark: listed apart in the source
[4] = target: recombinant stabilized spike protein derived from the beta strain (formerly described as the South A (SARS-CoV-2 (B.1.351), UniProt P0DTC2 14-1208))
[5] = target: T3, SARS-CoV-2 (Wuhan-Hu-1) wild-type (WT) spike protein carried on pseudotyped virus or on live wild-type virus (SARS-CoV-2 (Wuhan-Hu-1), UniProt P0DTC2 14-1273); test: cell-based or functional assay
[6] = target: T3, SARS-CoV-2 (Wuhan-Hu-1) wild-type (WT) …; test: cell-based or functional assay; remark: listed apart in the source
[7] = target: T2, parental receptor binding domain (RBD) …; test: ELISA, RBD coated, IgG detected with anti-human Fc-HRP
[8] = target: T1, SARS CoV-2 spike trimer protein from …; test: ELISA, spike protein coated, IgG detected with anti-human Fc-HRP
[9] = target: T4, SARS-CoV-2 B.1.351 ('SA', beta) variant spike protein on pseudotyped virus or live virus (SARS-CoV-2 (B.1.351), UniProt P0DTC2 14-1273); test: cell-based or functional assay
[10] = target: SARS-CoV-2 spike protein variant 484K on pseudotyped virus (SARS-CoV-2, UniProt P0DTC2 14-1273); test: cell-based or functional assay
[11] = target: T4, SARS-CoV-2 B.1.351 ('SA', beta) variant …; test: cell-based or functional assay; remark: listed apart in the source
[12] = target: S protein of a SARS-CoV-2 delta lineage virus on pseudotyped virus (SARS-CoV-2 (delta lineage)); test: cell-based or functional assay

B1: R2G3 ultralong CDR3 chimeric bovine-human IgG1 antibody (antibody)
VH: QVQLRESGPSLVKPSQTLSLTCAASGFSLSDKAVGWVRRAPGKALEWLGSIDTGGSTGYNPGLKSRLSITKDNSKSQVSLSISSVTSEDSATYYCATVHQKTAEGDKTCPDGYEHTCGCIGGCGCKRSACIGALCCQASLGGWLSDGETYTYEFHVDTWGQGLVVTVSS
VL: QAVLNQPSSVSGSLGQRVSITCSGSSSNVGNGYVSWYQLIPGSAPRTLIYGDTSRASGVPDRFSGSRSGNTATLTISSLQAEDEADYFCASAEDSSSNAVFGSGTTLTVL
- EC50 (read off the curve) [1]: ~10 pM
- EC50 (read off the curve) [2]: ~20 pM
- EC50 (read off the curve) [3]: ~400 pM
- EC50 (read off the curve) [4]: ~200 pM
- pseudovirus neutralization IC50 (luciferase assay) [5]: > 1 ng/mL
- live SARS CoV-2 neutralization, ng/mL (quantity not given) [6]: 0.5 ng/mL
- pseudovirus neutralization, ng/mL (quantity not given) [6]: 0.2 ng/mL
- EC50 [7]: 56 pM

B2: R2C3 (R5C1) ultralong CDR3 chimeric bovine-human IgG1 antibody (antibody)
VH: QVQLRESGPSLVKPSQTLSLTCTASGFSLSDKPVGWVRQAPGKPLEWLGSIDTAENTGYNPGLKSRLSITKDNSKSQVSLSLSSVTTEDSATYYCATVHQKTRKEKSCPDGYLYSSNTGRGYDCGVWTCRRVGGEFCSATGDWTSPSEEDFYEFYVDTWGQGAPVTVSS
VL: B1 VL
- EC50 (read off the curve) [3]: ~300 pM
- EC50 (read off the curve) [4]: ~300 pM
- EC50 [8]: 390 pM

B3: R2D6 chimeric bovine-human IgG1 antibody (antibody, V domains shown)
VH: QVQLRESGPSLVKPSQTLSLTCTTSGFSLSSYAVGWVRQAPGKALEWVGDIDYVGNTDYNPALKSRLSITKDNSKSQVSLVVSSVTAEDAATYYCAKYSGAYAYAACNYYGWRCAWESYIDAWGQGLLVTVSS
VL: B1 VL
- EC50 [7]: 570 pM
- EC50 [8]: 410 pM

B4: R4C1 ultralong CDR3 chimeric bovine-human IgG1 antibody (antibody)
VH: QVQLRESGPSLVKPSQTLSLTCTASGFSLSDKAVGWVRQAPGKPLEWLGSIDTAENTGYNPGLKSRLSITKDNSKSQVSLSVSSVTTEDSATYYCATVHQKTRKEKNCPDGYIYSSNTASGYDCGVWICRRVGSAFCSRTGDYTSPSEFDIYEFYVEGWGQGLLVTVSS
VL: B1 VL
- pseudovirus neutralization, ng/mL (quantity not given) [9]: 375 ng/mL
- pseudovirus neutralization, ng/mL (quantity not given) [6]: 99.9 ng/mL

B5: R2F12 ultralong CDR3 chimeric bovine-human IgG1 antibody (antibody)
VH: QVQLRESGPSLVKPSQTLSLTCTVSGFSLSDKAVGWVRRAPGKALEWLGSIDTGGMTGYNPGLKSRLSITKDNSKSQVSLSVNSVTTEDSATYYCATVDQKTKNACPDDFDYRCSCIGGCGCARKGCVGPLCCRSDLGGYLTDSPAYIYEWYIDLWGQGLLVTVSS
VL: B1 VL
- EC50 (read off the curve) [1]: ~20 pM
- EC50 (read off the curve) [2]: ~30 pM
- EC50 (read off the curve) [3]: ~300 pM
- EC50 (read off the curve) [4]: ~200 pM
- EC50 [7]: 85 pM
- EC50 [8]: 50 pM

B6: SKD ultralong CDR3 chimeric bovine-human IgG1 antibody (antibody)
VH: QVQLRESGPSLVKPSQTLSLTCTASGFSLSDKAVGWVRQAPGKALEWLGSIDTGGNTGYNPGLKSRLSITKDNSKSQVSLSVSSVTTEDSATYYCTTVHQRTSEKRSCPGGSSRRYPSGASCDVSGGACACYVSNCRGVLCPTLNEIVAYTYEWHVDAWGQGLLVTVSS
VL: B1 VL
- pseudovirus luciferase assay EC50 [10]: > 1000 pM
- pseudovirus luciferase assay EC50 [11]: > 1000 pM
- pseudovirus neutralization, ng/mL (quantity not given) [9]: > 1000 ng/mL

B7: R2B1 chimeric bovine-human IgG1 antibody (antibody, V domains shown)
VH: QVQLRESGPSLVKPSQTLSLTCTVSGFSLSDNNVGWVRQAPGKALEWLGVMHNDGNKGYNPALKSRLSITKDSSKSQVSLSLSSVTSEDTATYYCTRDNARCDSWTYDSCDTWYRNSWHVDAWGQGLLVTVSS
VL: B1 VL
- EC50 [7]: 520 pM
- EC50 [8]: 370 pM

B8: SKM ultralong CDR3 chimeric bovine-human IgG1 antibody (antibody)
VH: QVQLRESGPSLVKPSQTLSLTCTASGFSLSDKAVGWVRQAPGKALEWLGSIDTGGNTGYNPGLKSRLSITKDNSKSQVSLSVSSVTTEDSATYYCTTVHQETLRSCPDGYIDNSGCTADWGCAALDCWRRRFGYHSTDPSHYTGATYIYTYSLHIDAWGQGLLVTVSS
VL: B1 VL
- pseudovirus luciferase assay EC50 [10]: > 1000 pM
- pseudovirus luciferase assay EC50 [11]: > 1000 pM
- pseudovirus neutralization, ng/mL (quantity not given) [9]: > 1000 ng/mL

B9: RBD F4 chimeric bovine-human IgG1 antibody (antibody, V domains shown)
VH: QVQLRESGPSLVKPSQTLSLTCTVSGFSLSSNGVVWVRQAPGKALEWLGDICSTGGTSFNPALKSRLSIAKDNSKSQVSLSVRSVTPEDTATYYCARSRGYDCYANVDALDYVDAWGQGLLVTVSS
VL: B1 VL
- EC50 [7]: 30 pM
- EC50 [8]: 30 pM

B10: R2D9 ultralong CDR3 chimeric bovine-human IgG1 antibody (antibody)
VH: QVQLRESGPSLVKPSQTLSLTCTASGFSLSDKAIGWVRQAPGKALEWLGSIDTRGNTGYNPGLKSRLSITKDSSKSQVSLSVNSVTTEDSATYLCAIVQQITHKTCPNGYNWFDRCCSWDGTCGDGCCSNRAWPSGNGRADSSIGETYGYEFHVAAWGQGLLVTVSS
VL: B1 VL
- pseudovirus neutralization, ng/mL (quantity not given) [9]: 0.33 ng/mL
- pseudovirus neutralization, ng/mL (quantity not given) [12]: 0.32 ng/mL
- pseudovirus neutralization, ng/mL (quantity not given) [6]: 0.26 ng/mL

B11: SR3A3 ultralong CDR3 chimeric bovine-human IgG1 antibody (antibody)
VH: QVQLRESGPSLVKPSQTLSLTCTISGFSLSSYAVLWVRQAPGKPLEWLGSIDTAENTGYNPGLKSRLSITKDNSKSQVSLSVSSVTTEDSATYYCATVHQKTRKEKNCPDGYIYSSNITSGFDCGVWICRRVGSAFCSRTGDYTSPTELDIYEFYVEGWGQGVPVTVSS
VL: B1 VL
- binding result [7]: binds
- EC50 [8]: 37 pM

B12: RBD C6 chimeric bovine-human IgG1 antibody (antibody, V domains shown)
VH: B9 VH with K43R, A44P, T54N, K75E, S81T, N106Y, D108Y, Y112T
VL: B1 VL
- EC50 [7]: 30 pM
- EC50 [8]: 30 pM

B13: RBD A2 chimeric bovine-human IgG1 antibody (antibody, V domains shown)
VH: B9 VH with S15L, T17I
VL: B1 VL
- EC50 [7]: 30 pM
- EC50 [8]: 24 pM
